# Assay results from publication PMC7470129, “Synthesis and structure-activity relationships of cerebroside analogues as substrates of cerebroside sulphotransferase and discovery of a competitive inhibitor” (Journal of Enzyme Inhibition and Medicinal Chemistry, 2020).
# T1: galactosylceramide (cerebroside) sulphotransferase (CST) (Homo sapiens, UniProt Q99999)
# T1 construct: gene GAL3ST1
# T1 sequence (Q99999 1-423): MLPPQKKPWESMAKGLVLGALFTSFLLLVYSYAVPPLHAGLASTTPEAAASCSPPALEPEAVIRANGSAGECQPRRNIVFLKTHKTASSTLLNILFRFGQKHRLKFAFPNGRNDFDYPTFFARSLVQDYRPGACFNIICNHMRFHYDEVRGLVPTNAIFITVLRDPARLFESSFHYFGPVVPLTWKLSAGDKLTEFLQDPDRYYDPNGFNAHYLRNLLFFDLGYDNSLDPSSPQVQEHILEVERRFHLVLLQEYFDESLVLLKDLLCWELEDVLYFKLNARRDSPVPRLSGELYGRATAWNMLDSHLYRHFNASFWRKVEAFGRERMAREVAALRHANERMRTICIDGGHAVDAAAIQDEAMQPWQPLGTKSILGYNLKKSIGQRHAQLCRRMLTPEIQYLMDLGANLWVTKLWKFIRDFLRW
# Key:
# Assay in all cases: capillary electrophoresis enzyme assay, Michaelis-Menten kinetics (Km)
# [1] = target: T1, galactosylceramide (cerebroside) sulphotransferase (CST); type: biochemical
# [2] = substrate: CCCCCCCCCCCCCC[C@@H](O)[C@@H](O)[C@H](CO[C@H]1O[C@H](CO)[C@H](O)[C@H](O)[C@H]1O)NC(=O)CCCC; type: biochemical, Homo sapiens; conditions: PAPS
# [3] = substrate: CCCCCCCCCCCCCCCCCCC(=O)N[C@@H](CO[C@H]1O[C@H](CO)[C@H](O)[C@H](O)[C@H]1O)[C@H](O)[C@H](O)CCCCCCCCCCCCCC; type: biochemical, Homo sapiens; conditions: PAPS
molecule,measurement,setting,value
"CCCCCCCCCCCCCCCCCCCCCCCCCC(=O)N[C@@H](CO[C@H]1O[C@H](CO)[C@H](O)[C@H](O)[C@H]1O)[C@H](O)[C@H](O)CCCCCCCCCCCCCC [compound 18, KRN7000]",Km,[1],438 µM
"CCCCCCCCCCCCCCCCCCCCCCCCCC(=O)N[C@@H](CO[C@@H]1O[C@H](CO)[C@H](O)[C@H](O)[C@H]1O)[C@H](O)[C@H](O)CCCCCCCCCCCCCC [compound 10, β-KRN7000]",Km,[1],550 µM
galactosylceramide (cerebroside) sulphotransferase (CST) (Homo sapiens) (protein) MLPPQKKPWESMAKGLVLGALFTSFLLLVYSYAVPPLHAGLASTTPEAAASCSPPALEPEAVIRANGSAGECQPRRNIVFLKTHKTASSTLLNILFRFGQKHRLKFAFPNGRNDFDYPTFFARSLVQDYRPGACFNIICNHMRFHYDEVRGLVPTNAIFITVLRDPARLFESSFHYFGPVVPLTWKLSAGDKLTEFLQDPDRYYDPNGFNAHYLRNLLFFDLGYDNSLDPSSPQVQEHILEVERRFHLVLLQEYFDESLVLLKDLLCWELEDVLYFKLNARRDSPVPRLSGELYGRATAWNMLDSHLYRHFNASFWRKVEAFGRERMAREVAALRHANERMRTICIDGGHAVDAAAIQDEAMQPWQPLGTKSILGYNLKKSIGQRHAQLCRRMLTPEIQYLMDLGANLWVTKLWKFIRDFLRW,Km,[2],358 µM
same,Vmax,[2],0.0449 µmol/min/mg
same,Km,[3],521 µM
same,Vmax,[3],0.0519 µmol/min/mg
